Test results: patent US20180237497A1 (CANCER RESEARCH TECHNOLOGY, published 2018)

Experiments:
[1] = molecular target: T1, human IGF2^1-67 (mature insulin-like growth factor 2) (human, UniProt P01344 25-91, biotinylated (site not stated) where immobilised on the chip (Tables 1-4)); assay: SPR kinetic, biotin-IGF2 on chip, pH 7.4
T1 construct: mature; also called mature IGF2; biotinylated IGF2
Description: (§1) Surface plasmon resonance (SPR) binding analysis of recombinant M6P/IGF2R domain 11 mutants interaction with IGF2. Kon indicates association (on) rate; koff, dissociation (off) rate; RU, response units. Binding to IGF2 assessed with BIAcore T200 using purified biotinylated IGF2 and IGF1 on a streptavidin biosensor chip. Recombinant proteins were expressed either in E. coli and/or P. pastoris. All the mutants in the FG and CD loops are on the domain 11^AB5 background for the AB loop unless otherwise stated. All experiments were carried out at 25° C. in HBS-EP buffer (pH 7.4), were repeated 2-5 times on two independent BIAcore chips. nd=not determined. Data for KD expressed as mean of each experiment, and means of kon and koff are shown.
(§2) Final kinetic analysis of mutants by SPR was conducted using a Biacore T200 biosensor at 25° C. in either HBS-EP (10 mM HEPES pH 7.4, 150 mM NaCl, 3 mM EDTA, and 0.005% (v/v) surfactant P20) or MES-EP (20 mM MES pH 6.5, 150 mM NaCl, 3 mM EDTA, and 0.005% (v/v) surfactant P20) at a flow-rate of 40 μL min⁻¹. […] For the analysis of the Fc-domain 11^AB5 interaction, approximately 50 RU of a biotinylated IGF2:biotinylated ubiquitin mixture (1:8 proportion) was immobilized on the CM5-streptavidin chip. This interaction was also analysed by immobilizing the Fc-domain 11^AB5 and Fc-domain 11^AB5-RHH (or Fc-domain 11^I1572A as control) by Human Antibody Capture (monoclonal mouse anti-human IgG antibody immobilised on a CM5 chip by amine coupling, GE Healthcare) with and without human IgG1 Fc fragment (Bethyl Laboratories, UK) in the control flow cell. […] T200 BiaEvaluation software (GE Healthcare) was used to fit the resulting curves according to a 1:1 binding model. Steady state affinities were determined using the kinetic data, taking the response average at 5 seconds before injection end and for 5 seconds average.

[2] = molecular target: T1, human IGF2^1-67 (mature insulin-like …); assay: SPR steady state, biotin-IGF2 on chip, pH 7.4
Description: as §1, §2

T1 sequence (P01344 25-91): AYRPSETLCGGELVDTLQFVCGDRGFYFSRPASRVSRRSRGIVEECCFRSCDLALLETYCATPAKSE

Row | Binder | Kd [1] | koff [1] | kon [1] | Kd [2]
1 | domain 11^AB5 G1603A (receptor, See m5) MKSNEHDDCQVTNPSTGHLFDLSSLSGRAGFTAAYAKGWGVYMSICGENENCPPGVGACFGQTRISVGKANKRLRYVDQVLQLVYKDGSPCPSKSALSYKSVISFVCRPEAGPTNRPMLISLDKQTCTLFFSWHTPLACEQATECSV | 8.69 nM | 0.0183 s⁻¹ | 2.14e+06 M⁻¹ s⁻¹ | 12.1 nM
2 | domain 11^AB5 P1599V (receptor, See m5; the asterisk is not explained) MKSNEHDDCQVTNPSTGHLFDLSSLSGRAGFTAAYAKGWGVYMSICGENENCPPGVGACFGQTRISVGKANKRLRYVDQVLQLVYKDGSPCVSKSGLSYKSVISFVCRPEAGPTNRPMLISLDKQTCTLFFSWHTPLACEQATECSV | > 100 nM | > 0.1 s⁻¹ | – | > 100 nM
3 | domain 11^AB5 K1631W (receptor, See m5; HI loop mutant) MKSNEHDDCQVTNPSTGHLFDLSSLSGRAGFTAAYAKGWGVYMSICGENENCPPGVGACFGQTRISVGKANKRLRYVDQVLQLVYKDGSPCPSKSGLSYKSVISFVCRPEAGPTNRPMLISLDWQTCTLFFSWHTPLACEQATECSV | 2.94 nM | 0.0034 s⁻¹ | 1.18e+06 M⁻¹ s⁻¹ | 12.2 nM
4 | domain 11^AB5 K1631E (receptor, See m5; HI loop mutant) MKSNEHDDCQVTNPSTGHLFDLSSLSGRAGFTAAYAKGWGVYMSICGENENCPPGVGACFGQTRISVGKANKRLRYVDQVLQLVYKDGSPCPSKSGLSYKSVISFVCRPEAGPTNRPMLISLDEQTCTLFFSWHTPLACEQATECSV | > 100 nM | > 0.1 s⁻¹ | – | > 100 nM
5 | domain 11^AB5 L1604A (receptor, See m5) MKSNEHDDCQVTNPSTGHLFDLSSLSGRAGFTAAYAKGWGVYMSICGENENCPPGVGACFGQTRISVGKANKRLRYVDQVLQLVYKDGSPCPSKSGASYKSVISFVCRPEAGPTNRPMLISLDKQTCTLFFSWHTPLACEQATECSV | 48.3 nM | 0.0397 s⁻¹ | 790000 M⁻¹ s⁻¹ | 60 nM
6 | domain 11^AB5 P1599A (receptor, See m5; the asterisk is not explained) MKSNEHDDCQVTNPSTGHLFDLSSLSGRAGFTAAYAKGWGVYMSICGENENCPPGVGACFGQTRISVGKANKRLRYVDQVLQLVYKDGSPCASKSGLSYKSVISFVCRPEAGPTNRPMLISLDKQTCTLFFSWHTPLACEQATECSV | > 70 nM | > 0.1 s⁻¹ | – | > 70 nM
7 | domain 11^AB5 S1600Y (receptor, See m5) MKSNEHDDCQVTNPSTGHLFDLSSLSGRAGFTAAYAKGWGVYMSICGENENCPPGVGACFGQTRISVGKANKRLRYVDQVLQLVYKDGSPCPYKSGLSYKSVISFVCRPEAGPTNRPMLISLDKQTCTLFFSWHTPLACEQATECSV | > 200 nM | > 0.2 s⁻¹ | – | > 200 nM
8 | domain 11^AB5 S1600N (receptor, See m5) MKSNEHDDCQVTNPSTGHLFDLSSLSGRAGFTAAYAKGWGVYMSICGENENCPPGVGACFGQTRISVGKANKRLRYVDQVLQLVYKDGSPCPNKSGLSYKSVISFVCRPEAGPTNRPMLISLDKQTCTLFFSWHTPLACEQATECSV | 24.4 nM | 0.091 s⁻¹ | 3.95e+06 M⁻¹ s⁻¹ | 29.7 nM
9 | domain 11^AB5 P1599G (receptor, See m5; the asterisk is not explained) MKSNEHDDCQVTNPSTGHLFDLSSLSGRAGFTAAYAKGWGVYMSICGENENCPPGVGACFGQTRISVGKANKRLRYVDQVLQLVYKDGSPCGSKSGLSYKSVISFVCRPEAGPTNRPMLISLDKQTCTLFFSWHTPLACEQATECSV | > 200 nM | > 0.2 s⁻¹ | – | > 200 nM
10 | domain 11^AB5 K1631R (receptor, See m5; HI loop mutant) MKSNEHDDCQVTNPSTGHLFDLSSLSGRAGFTAAYAKGWGVYMSICGENENCPPGVGACFGQTRISVGKANKRLRYVDQVLQLVYKDGSPCPSKSGLSYKSVISFVCRPEAGPTNRPMLISLDRQTCTLFFSWHTPLACEQATECSV | 12.3 nM | 0.0867 s⁻¹ | 7.18e+06 M⁻¹ s⁻¹ | 13.5 nM
11 | domain 11^AB5 Q1632A (receptor, See m5; HI loop mutant) MKSNEHDDCQVTNPSTGHLFDLSSLSGRAGFTAAYAKGWGVYMSICGENENCPPGVGACFGQTRISVGKANKRLRYVDQVLQLVYKDGSPCPSKSGLSYKSVISFVCRPEAGPTNRPMLISLDKATCTLFFSWHTPLACEQATECSV | 3.76 nM | 0.0167 s⁻¹ | 4.5e+06 M⁻¹ s⁻¹ | 4.84 nM
12 | domain 11^AB5 Q1632K (receptor, See m5; HI loop mutant) MKSNEHDDCQVTNPSTGHLFDLSSLSGRAGFTAAYAKGWGVYMSICGENENCPPGVGACFGQTRISVGKANKRLRYVDQVLQLVYKDGSPCPSKSGLSYKSVISFVCRPEAGPTNRPMLISLDKKTCTLFFSWHTPLACEQATECSV | 11.1 nM | 0.0212 s⁻¹ | 1.96e+06 M⁻¹ s⁻¹ | 12.8 nM
13 | domain 11^AB5 K1631A (receptor, See m5; HI loop mutant) MKSNEHDDCQVTNPSTGHLFDLSSLSGRAGFTAAYAKGWGVYMSICGENENCPPGVGACFGQTRISVGKANKRLRYVDQVLQLVYKDGSPCPSKSGLSYKSVISFVCRPEAGPTNRPMLISLDAQTCTLFFSWHTPLACEQATECSV | > 200 nM | – | – | > 200 nM
14 | domain 11^AB5 S1600A (receptor, See m5) MKSNEHDDCQVTNPSTGHLFDLSSLSGRAGFTAAYAKGWGVYMSICGENENCPPGVGACFGQTRISVGKANKRLRYVDQVLQLVYKDGSPCPAKSGLSYKSVISFVCRPEAGPTNRPMLISLDKQTCTLFFSWHTPLACEQATECSV | 89.1 nM | 0.213 s⁻¹ | 2.39e+06 M⁻¹ s⁻¹ | 84.7 nM
15 | domain 11^AB5 S1600V (receptor, See m5) MKSNEHDDCQVTNPSTGHLFDLSSLSGRAGFTAAYAKGWGVYMSICGENENCPPGVGACFGQTRISVGKANKRLRYVDQVLQLVYKDGSPCPVKSGLSYKSVISFVCRPEAGPTNRPMLISLDKQTCTLFFSWHTPLACEQATECSV | > 200 nM | > 0.2 s⁻¹ | – | > 200 nM
16 | domain 11^AB5 S1602N (receptor, See m5) MKSNEHDDCQVTNPSTGHLFDLSSLSGRAGFTAAYAKGWGVYMSICGENENCPPGVGACFGQTRISVGKANKRLRYVDQVLQLVYKDGSPCPSKNGLSYKSVISFVCRPEAGPTNRPMLISLDKQTCTLFFSWHTPLACEQATECSV | 4.75 nM | 0.0112 s⁻¹ | 2.38e+06 M⁻¹ s⁻¹ | 7.93 nM
17 | domain 11^AB5 S1600L (receptor, See m5) MKSNEHDDCQVTNPSTGHLFDLSSLSGRAGFTAAYAKGWGVYMSICGENENCPPGVGACFGQTRISVGKANKRLRYVDQVLQLVYKDGSPCPLKSGLSYKSVISFVCRPEAGPTNRPMLISLDKQTCTLFFSWHTPLACEQATECSV | > 200 nM | > 0.2 s⁻¹ | – | > 200 nM
18 | domain 11^AB5 Q1632L (receptor, See m5; HI loop mutant) MKSNEHDDCQVTNPSTGHLFDLSSLSGRAGFTAAYAKGWGVYMSICGENENCPPGVGACFGQTRISVGKANKRLRYVDQVLQLVYKDGSPCPSKSGLSYKSVISFVCRPEAGPTNRPMLISLDKLTCTLFFSWHTPLACEQATECSV | 5.75 nM | 0.0175 s⁻¹ | 3.18e+06 M⁻¹ s⁻¹ | 9.34 nM
19 | domain 11^AB5 Q1632E (receptor, See m5; HI loop mutant) MKSNEHDDCQVTNPSTGHLFDLSSLSGRAGFTAAYAKGWGVYMSICGENENCPPGVGACFGQTRISVGKANKRLRYVDQVLQLVYKDGSPCPSKSGLSYKSVISFVCRPEAGPTNRPMLISLDKETCTLFFSWHTPLACEQATECSV | 39.8 nM | 0.0202 s⁻¹ | 520000 M⁻¹ s⁻¹ | 52.4 nM
20 | domain 11^AB5 K1601A (receptor, See m5) MKSNEHDDCQVTNPSTGHLFDLSSLSGRAGFTAAYAKGWGVYMSICGENENCPPGVGACFGQTRISVGKANKRLRYVDQVLQLVYKDGSPCPSASGLSYKSVISFVCRPEAGPTNRPMLISLDKQTCTLFFSWHTPLACEQATECSV | 6.8 nM | 0.022 s⁻¹ | 3.26e+06 M⁻¹ s⁻¹ | 8.51 nM
21 | domain 11^AB5 S1602A (receptor, See m5) MKSNEHDDCQVTNPSTGHLFDLSSLSGRAGFTAAYAKGWGVYMSICGENENCPPGVGACFGQTRISVGKANKRLRYVDQVLQLVYKDGSPCPSKAGLSYKSVISFVCRPEAGPTNRPMLISLDKQTCTLFFSWHTPLACEQATECSV | 16.5 nM | 0.025 s⁻¹ | 1.57e+06 M⁻¹ s⁻¹ | 19.9 nM
